Experimental data taken from paper PMC5484534 (Molecular cell, 2017).

Tests used:
BMAL1 TAD = test: Cyclophilin acceleration of TAD switch isomerization by 15N-1H ZZ-exchange NMR; type: biochemical, mouse; settings: room temperature (22.68°C), 400 μM 15N BMAL1 TAD + 100 μM cyclophilin, 20 mM HEPES pH 7.0 (pH 7.5 for His6GST-PPIL3), 100 mM NaCl, 2 mM TCEP
[1] = ref Davis et al., 2010; cited from earlier work

Molecule | activity on TAD switch isomerization, in words (BMAL1 TAD) | activity on generic peptide substrates [1]
PPIL1: human nuclear cyclophilin (protein, UniProt Q9Y3C6 1-166, looked up) Peptidyl-prolyl cis-trans …: MAAIPPDSWQPPNVYLETSMGIIVLELYWKHAPKTCKNFAELARRGYYNGTKFHRIIKDFMIQGGDPTGTGRGGASIYGKQFEDELHPDLKFTGAGILAMANAGPDTNGSQFFVTLAPTQWLDGKHTIFGRVCQGIGMVNRVGMVETNSQDRPVDDVKIIKAYPSG | significantly increased the rate of isomerization in BMAL1 | 
PPWD: human nuclear cyclophilin (protein, UniProt Q96BP3 2-646, looked up) Peptidylprolyl isomerase …: AAESGSDFQQRRRRRRDPEEPEKTELSERELAVAVAVSQENDEENEERWVGPLPVEATLAKKRKVLEFERVYLDNLPSASMYERSYMHRDVITHVVCTKTDFIITASHDGHVKFWKKIEEGIEFVKHFRSHLGVIESIAVSSEGALFCSVGDDKAMKVFDVVNFDMINMLKLGYFPGQCEWIYCPGDAISSVAASEKSTGKIFIYDGRGDNQPLHIFDKLHTSPLTQIRLNPVYKAVVSSDKSGMIEYWTGPPHEYKFPKNVNWEYKTDTDLYEFAKCKAYPTSVCFSPDGKKIATIGSDRKVRIFRFVTGKLMRVFDESLSMFTELQQMRQQLPDMEFGRRMAVERELEKVDAVRLINIVFDETGHFVLYGTMLGIKVINVETNRCVRILGKQENIRVMQLALFQGIAKKHRAATTIEMKASENPVLQNIQADPTIVCTSFKKNRFYMFTKREPEDTKSADSDRDVFNEKPSKEEVMAATQAEGPKRVSDSAIIHTSMGDIHTKLFPVECPKTVENFCVHSRNGYYNGHTFHRIIKGFMIQTGDPTGTGMGGESIWGGEFEDEFHSTLRHDRPYTLSMANAGSNTNGSQFFITVVPTPWLDNKHTVFGRVTKGMEVVQRISNVKVNPKTDKPYEDVSIINITVK | either not active on the TAD or had activity that was below the detection limit | 
PPIG: human nuclear cyclophilin (protein, UniProt Q13427 1-754, looked up) Peptidyl-prolyl cis-trans …: MGIKVQRPRCFFDIAINNQPAGRVVFELFSDVCPKTCENFRCLCTGEKGTGKSTQKPLHYKSCLFHRVVKDFMVQGGDFSEGNGRGGESIYGGFFEDESFAVKHNKEFLLSMANRGKDTNGSQFFITTKPTPHLDGHHVVFGQVISGQEVVREIENQKTDAASKPFAEVRILSCGELIPKSKVKKEEKKRHKSSSSSSSSSSDSDSSSDSQSSSDSSDSESATEEKSKKRKKKHRKNSRKHKKEKKKRKKSKKSASSESEAENLEAQPQSTVRPEEIPPIPENRFLMRKSPPKADEKERKNRERERERECNPPNSQPASYQRRLLVTRSGRKIKGRGPRRYRTPSRSRSRDRFRRSETPPHWRQEMQRAQRMRVSSGERWIKGDKSELNEIKENQRSPVRVKERKITDHRNVSESPNRKNEKEKKVKDHKSNSKERDIRRNSEKDDKYKNKVKKRAKSKSRSKSKEKSKSKERDSKHNRNEEKRMRSRSKGRDHENVKEKEKQSDSKGKDQERSRSKEKSKQLESKSNEHDHSKSKEKDRRAQSRSRECDITKGKHSYNSRTRERSRSRDRSRRVRSRTHDRDRSRSKEYHRYREQEYRRRGRSRSRERRTPPGRSRSKDRRRRRRDSRSSEREESQSRNKDKYRNQESKSSHRKENSESEKRMYSKSRDHNSSNNSREKKADRDQSPFSKIKQSSQDNELKSSMLKNKEDEKIRSSVEKENQKSKGQENDHVHEKNKKFDHESSPGTDEDKSG | significantly increased the rate of isomerization in BMAL1 | 
CWC27: human nuclear cyclophilin (protein, UniProt Q6UX04 2-472, looked up) Spliceosome-associated …: SNIYIQEPPTNGKVLLKTTAGDIDIELWSKEAPKACRNFIQLCLEAYYDNTIFHRVVPGFIVQGGDPTGTGSGGESIYGAPFKDEFHSRLRFNRRGLVAMANAGSHDNGSQFFFTLGRADELNNKHTIFGKVTGDTVYNMLRLSEVDIDDDERPHNPHKIKSCEVLFNPFDDIIPREIKRLKKEKPEEEVKKLKPKGTKNFSLLSFGEEAEEEEEEVNRVSQSMKGKSKSSHDLLKDDPHLSSVPVVESEKGDAPDLVDDGEDESAEHDEYIDGDEKNLMRERIAKKLKKDTSANVKSAGEGEVEKKSVSRSEELRKEARQLKRELLAAKQKKVENAAKQAEKRSEEEEAPPDGAVAEYRREKQKYEALRKQQSKKGTSREDQTLALLNQFKSKLTQAIAETPENDIPETEVEDDEGWMSHVLQFEDKSRKVKDASMQDSDTFEIYDPRNPVNKRRREESKKLMREKKERR | either not active on the TAD or had activity that was below the detection limit | lack activity on generic peptide substrates
PPIL2: human nuclear cyclophilin (protein, UniProt Q13356 1-520, looked up) RING-type E3 …: MGKRQHQKDKMYITCAEYTHFYGGKKPDLPQTNFRRLPFDHCSLSLQPFVYPVCTPDGIVFDLLNIVPWLKKYGTNPSNGEKLDGRSLIKLNFSKNSEGKYHCPVLFTVFTNNTHIVAVRTTGNVYAYEAVEQLNIKAKNFRDLLTDEPFSRQDIITLQDPTNLDKFNVSNFYHVKNNMKIIDPDEEKAKQDPSYYLKNTNAETRETLQELYKEFKGDEILAATMKAPEKKKVDKLNAAHYSTGKVSASFTSTAMVPETTHEAAAIDEDVLRYQFVKKKGYVRLHTNKGDLNLELHCDLTPKTCENFIRLCKKHYYDGTIFHRSIRNFVIQGGDPTGTGTGGESYWGKPFKDEFRPNLSHTGRGILSMANSGPNSNRSQFFITFRSCAYLDKKHTIFGRVVGGFDVLTAMENVESDPKTDRPKEEIRIDATTVFVDPYEEADAQIAQERKTQLKVAPETKVKSSQPQAGSQGPQTFRQGVGKYINPAATKRAAEEEPSTSATVPMSKKKPSRGFGDFSSW | either not active on the TAD or had activity that was below the detection limit | lack activity on generic peptide substrates
PPIL3: human nuclear cyclophilin (protein, UniProt Q9H2H8 2-161, looked up, His6-GST tag) Peptidyl-prolyl cis-trans …: SVTLHTDVGDIKIEVFCERTPKTCENFLALCASNYYNGCIFHRNIKGFMVQTGDPTGTGRGGNSIWGKKFEDEYSEYLKHNVRGVVSMANNGPNTNGSQFFITYGKQPHLDMKYTVFGKVIDGLETLDELEKLPVNEKTYRPLNDVHIKDITIHANPFAQ | significantly increased the rate of isomerization in BMAL1 | 
